From US20140377253A1 (published 2014)

T1: FcγRIIB expressed on cells (UniProt P31994 43-310)
T1 chain: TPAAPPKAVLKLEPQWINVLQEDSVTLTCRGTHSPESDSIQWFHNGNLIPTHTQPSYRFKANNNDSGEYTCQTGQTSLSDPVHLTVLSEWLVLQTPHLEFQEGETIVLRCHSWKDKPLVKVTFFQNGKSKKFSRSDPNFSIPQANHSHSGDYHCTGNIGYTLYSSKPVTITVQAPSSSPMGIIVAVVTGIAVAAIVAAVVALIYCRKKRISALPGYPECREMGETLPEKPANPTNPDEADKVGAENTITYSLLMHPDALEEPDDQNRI

B1: V263L (protein)
chain: APELLGGPSVFLFPPKPKDTLMISRTPEVTCVLVDVSHEDPEVKFNWYVDGVEVHNAKTKPREEQYNSTYRVVSVLTVLHQDWLNGKEYKCKVSNKALPAPIEKTISKAK
B2: V273C (protein)
chain: APELLGGPSVFLFPPKPKDTLMISRTPEVTCVVVDVSHEDPECKFNWYVDGVEVHNAKTKPREEQYNSTYRVVSVLTVLHQDWLNGKEYKCKVSNKALPAPIEKTISKAK
B3: V305K (protein)
chain: APELLGGPSVFLFPPKPKDTLMISRTPEVTCVVVDVSHEDPEVKFNWYVDGVEVHNAKTKPREEQYNSTYRVVSKLTVLHQDWLNGKEYKCKVSNKALPAPIEKTISKAK
B4: V273E (protein)
chain: APELLGGPSVFLFPPKPKDTLMISRTPEVTCVVVDVSHEDPEEKFNWYVDGVEVHNAKTKPREEQYNSTYRVVSVLTVLHQDWLNGKEYKCKVSNKALPAPIEKTISKAK
B5: V273M (protein)
chain: APELLGGPSVFLFPPKPKDTLMISRTPEVTCVVVDVSHEDPEMKFNWYVDGVEVHNAKTKPREEQYNSTYRVVSVLTVLHQDWLNGKEYKCKVSNKALPAPIEKTISKAK
B6: V305W (protein)
chain: APELLGGPSVFLFPPKPKDTLMISRTPEVTCVVVDVSHEDPEVKFNWYVDGVEVHNAKTKPREEQYNSTYRVVSWLTVLHQDWLNGKEYKCKVSNKALPAPIEKTISKAK
B7: V273L (protein)
chain: APELLGGPSVFLFPPKPKDTLMISRTPEVTCVVVDVSHEDPELKFNWYVDGVEVHNAKTKPREEQYNSTYRVVSVLTVLHQDWLNGKEYKCKVSNKALPAPIEKTISKAK
B8: V273F (protein)
chain: APELLGGPSVFLFPPKPKDTLMISRTPEVTCVVVDVSHEDPEFKFNWYVDGVEVHNAKTKPREEQYNSTYRVVSVLTVLHQDWLNGKEYKCKVSNKALPAPIEKTISKAK
B9: V273S (protein)
chain: APELLGGPSVFLFPPKPKDTLMISRTPEVTCVVVDVSHEDPESKFNWYVDGVEVHNAKTKPREEQYNSTYRVVSVLTVLHQDWLNGKEYKCKVSNKALPAPIEKTISKAK
B10: V266L (protein)
chain: APELLGGPSVFLFPPKPKDTLMISRTPEVTCVVVDLSHEDPEVKFNWYVDGVEVHNAKTKPREEQYNSTYRVVSVLTVLHQDWLNGKEYKCKVSNKALPAPIEKTISKAK
B11: V273Y (protein)
chain: APELLGGPSVFLFPPKPKDTLMISRTPEVTCVVVDVSHEDPEYKFNWYVDGVEVHNAKTKPREEQYNSTYRVVSVLTVLHQDWLNGKEYKCKVSNKALPAPIEKTISKAK

Assays:
[1] = target: T1, FcγRIIB expressed on cells; test: FACS
[2] = target: FcγRIIIA expressed on cells (UniProt P08637 17-254); test: FACS
Chain of FcγRIIIA expressed on cells (P08637 17-254): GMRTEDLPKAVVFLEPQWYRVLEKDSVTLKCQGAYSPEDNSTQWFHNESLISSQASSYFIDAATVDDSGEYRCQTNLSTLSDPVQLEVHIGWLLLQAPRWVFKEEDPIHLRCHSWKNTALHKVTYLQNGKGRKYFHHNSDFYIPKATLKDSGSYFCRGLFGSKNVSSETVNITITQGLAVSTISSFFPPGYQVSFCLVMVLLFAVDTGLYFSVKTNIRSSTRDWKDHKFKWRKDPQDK

EC50 [1] | EC50 [2] | Binder
1.8 nM | 1.52 nM | B1
2.03 nM | 1.19 nM | B2
1.93 nM | 0.51 nM | B3
1.66 nM | 1.78 nM | B4
1.63 nM | 1.59 nM | B5
2.86 nM | 0.74 nM | B6
1.66 nM | 0.69 nM | B7
1.08 nM | 2.01 nM | B8
1.72 nM | 1.33 nM | B9
2.22 nM | 0.76 nM | B10
1.18 nM | 3.19 nM | B11
